# Measurements as given in the supplement of paper PMC9732359.
# ± gives the uncertainty stated by the source.
# Assay: protein stability index of a GFP-peptide fusion (yeast GPS) (PSI 1-4); higher = more stable; sorted into four equal gates, so the index is relative within each strain
# Summary of the method: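 Plasmids in a pooled yeast library fused tiled 17-residue yeast protein peptides downstream of GFP and also expressed Cherry. Mid-log cultures grown without leucine were sorted into four equal gates by GFP/Cherry fluorescence ratio. Each gate's plasmids were PCR-amplified and Illumina-sequenced, and reads were matched to strains by barcodes. The protein stability index is derived by multiplying each gate's read frequency by its gate number and summing the results.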
Sequence,protein stability index (doa10∆),protein stability index (pdr5∆),protein stability index (san1∆),protein stability index (ubr1∆)
QPDANKKKRSRTSATRE [ISW2],3.46 ± 0.14,3.38 ± 0.079,3.5 ± 0.057,3.16 ± 0.1
PKELVPSHEKLKESYSQ [CDC53],3.13 ± 0.077,3.02 ± 0.067,2.51 ± 0.14,2.81 ± 0.073
NYDCKVISIVGGHSLEE [PRP28],2.93 ± 0.055,2.91 ± 0.059,2.88 ± 0.042,2.83 ± 0.041
KQTADWLAEKFQKETNM [PRP28],2.57 ± 0.2,3.12 ± 0.14,3.43 ± 0.091,3.16 ± 0.21
QNGQQPPTTSNLIIFLY [YML103C/NUP188],2.83 ± 0.05,2.78 ± 0.04,2.94 ± 0.034,3.06 ± 0.035
INDFKKIGRENENENED [POP5],,3.38 ± 0.22,2.76 ± 0.19,2.49 ± 0.27
QVFSVKDSTAGKKVFET [YJR042W/NUP85],,,3.09 ± 0.2,
DPPNEGDPFDYKAQADT [RPB3],3.18 ± 0.13,3.42 ± 0.12,3.34 ± 0.12,3.12 ± 0.073
ILYEIRALYTPFLLMEL [YDL116W/NUP84],2.66 ± 0.081,2.93 ± 0.064,2.79 ± 0.066,3.02 ± 0.062
EEASQLIEYMENDAKKS [NUT1],2.95 ± 0.081,3.2 ± 0.067,3.15 ± 0.061,3.04 ± 0.048
RLTGSLLAHKVADEEAN [RPC37],1.22 ± 0.057,1.32 ± 0.068,1.16 ± 0.12,1.06 ± 0.056
GTGRAVARIPRVGGGGT [RPL4A],,,2.68 ± 0.21,
FEYSKYRPLTPSSEVYS [RRP6],3.07 ± 0.086,3.01 ± 0.071,2.87 ± 0.053,2.83 ± 0.056
ILTEHLGYPPISLVDDI [MTW1],2.36 ± 0.054,2.17 ± 0.047,2.22 ± 0.071,2.11 ± 0.042
NMGMNNMNNGGKELDSL [PGD1],3.54 ± 0.28,3.64 ± 0.24,3.24 ± 0.11,3.24 ± 0.082
QQLQVLARYLKMDLDNG [FAS2],1.9 ± 0.13,2.04 ± 0.089,2.78 ± 0.079,2.31 ± 0.051
VHDKILEDLVFPTEIVG [RPS7A],3.3 ± 0.13,3.15 ± 0.076,3.27 ± 0.061,3.31 ± 0.1
NINAKMETRINILLRER [YIL149C/MLP2],2.98 ± 0.18,3.35 ± 0.12,2.61 ± 0.12,3.15 ± 0.1
VPVRKFKGNNGVVVLRD [RPN2],,2.88 ± 0.18,,
VNVEKFNVEYFAKEKLT [RPL6A],1.84 ± 0.039,1.96 ± 0.044,2.08 ± 0.069,2.37 ± 0.036
AKSTVETFISSMTATAD [RIP1],1.89 ± 0.073,2.13 ± 0.077,2.93 ± 0.061,1.48 ± 0.05

Sequence,protein stability index (doa10∆),protein stability index (pdr5∆),protein stability index (san1∆),protein stability index (ubr1∆)
ANRDDVKGRENELLLPS [RPC82],3.37 ± 0.14,,3.6 ± 0.09,3.34 ± 0.084
KKLLINKDASLALQRGA [DPB4],2.62 ± 0.094,2.75 ± 0.12,2.44 ± 0.17,3.06 ± 0.092
TGGQTIDNGTGRTGNGN [MED6],3.06 ± 0.13,2.82 ± 0.066,3.26 ± 0.079,2.72 ± 0.063
NYIPGNPLVTPASIVPE [COB],1.81 ± 0.068,2.36 ± 0.071,2.42 ± 0.1,2.56 ± 0.086
GNNTELTKTTVNISAVD [YCG1],2.98 ± 0.07,3.24 ± 0.071,3.02 ± 0.054,3.12 ± 0.054
EEQRSDTKNSKSESPSE [ISW2],,3.21 ± 0.23,,
PAGQATQKRTHVLKKNP [RPL4A],2.95 ± 0.22,3.21 ± 0.21,3.28 ± 0.22,2.74 ± 0.14
GIRGKLVTIEGALIHKA [SMC1],3.33 ± 0.2,2.95 ± 0.17,2.88 ± 0.13,
NMMEHWDYLQLTVAMYI [RPO31],2.08 ± 0.061,2.2 ± 0.063,2.4 ± 0.15,1.85 ± 0.063
NGITLALIDAGISMFDY [SKI6],1.38 ± 0.068,1.51 ± 0.042,1.59 ± 0.14,1.56 ± 0.038
ESNKRYRFFKKISEDPV [SNF12],3.16 ± 0.16,2.97 ± 0.16,2.99 ± 0.18,2.69 ± 0.061
TLIIDQVRKDLGNVIVP [NUT1],3.07 ± 0.29,,3.12 ± 0.21,2.89 ± 0.14
KQERLKENEESLTPTQS [PRP28],3.13 ± 0.092,3.4 ± 0.07,3.22 ± 0.12,3.15 ± 0.074
MSDSPLSKRQKRKSAQE [SMC4],3.46 ± 0.17,3.16 ± 0.11,3.04 ± 0.12,3.46 ± 0.27
PEKTSTELVDGRENFVY [SIR3],3.08 ± 0.099,3.25 ± 0.15,3.1 ± 0.12,3 ± 0.088
ESLTFNEFQLQWGKYQT [SWI1],2.86 ± 0.049,2.93 ± 0.047,2.67 ± 0.045,2.91 ± 0.034
ILNHIGQLTGIYRYKYK [PRP8],1.39 ± 0.072,1.47 ± 0.075,1.26 ± 0.11,2.03 ± 0.068
MQIFVKTLTGKTITLEV [RPS31],2.48 ± 0.17,1.76 ± 0.097,2.61 ± 0.13,3.13 ± 0.13
DLISKKTKTSLLPTIKR [RPR2],3.09 ± 0.079,2.58 ± 0.073,2.58 ± 0.086,2.74 ± 0.063
SQPTNSTTTSLHVPNLQ [SMC4],1.99 ± 0.043,2.4 ± 0.035,2.21 ± 0.052,2.03 ± 0.027
